Laboratory results from US20250011448A1 (STAIDSON BIOPHARMA, published 2025).

Assays:
[1] = target: T1, human TNFR2 extracellular domain with C-terminal 10×His tag (human, UniProt P20333 23-257); test: BLI (Octet RED96), antibody captured on AHC biosensor, His-tagged TNFR2 in solution, 1:1 model
T1 construct: also called huTNFR2-His; His-tag-huTNFR2
T1 sequence: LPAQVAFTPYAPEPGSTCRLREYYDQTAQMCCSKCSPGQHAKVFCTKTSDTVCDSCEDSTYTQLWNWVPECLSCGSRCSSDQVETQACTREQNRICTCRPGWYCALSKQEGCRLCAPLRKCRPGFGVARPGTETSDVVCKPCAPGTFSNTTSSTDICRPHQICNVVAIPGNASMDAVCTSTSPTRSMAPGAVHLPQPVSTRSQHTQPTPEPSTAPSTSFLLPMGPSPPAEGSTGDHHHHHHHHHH
Experimental: (§1) The following kinetic assay was performed using anti-human IgG Fc capture (AHC) biosensors (ForteBio) in kinetics buffer (PBS, 0.1% Tween-20 and 1% bovine serum albumin): (a) antibody (2 μg/mL) for 300 sec, (b) baseline for 120 sec, (c) association with His-tag-huTNFR2 (2.5, 0.5 and 0 μg/mL) and His-tag-cynoTNFR2 (2.5, 0.5 and 0 μg/mL) for 420 sec and (d) dissociation for 1200 sec. Data fitting and analysis was performed with Octet data analysis software 8.0 (ForteBio) using a 1:1 binding model after Savitzky-Golay filtering.

[2] = target: T2, human TNFR2 extracellular domain fused to human IgG1 Fc (human, UniProt P20333 23-257); test: blocking ELISA: antibody pre-mixed with huTNFR2, binding of huTNFR2 to coated human TNFα read out
T2 construct: also called TNFR2-huFc; huTNFR2; not shown: C-terminal human IgG1 Fc
T2 sequence: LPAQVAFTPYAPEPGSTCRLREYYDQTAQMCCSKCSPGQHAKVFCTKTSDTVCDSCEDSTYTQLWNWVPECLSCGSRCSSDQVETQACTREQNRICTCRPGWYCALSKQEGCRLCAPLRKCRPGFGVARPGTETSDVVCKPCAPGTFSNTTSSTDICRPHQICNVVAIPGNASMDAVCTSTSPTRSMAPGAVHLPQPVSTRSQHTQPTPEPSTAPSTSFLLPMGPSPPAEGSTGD
Experimental: 96-well round bottom ELISA plates were coated overnight at 4° C. with 50 μL/well of 0.5 μg/mL human TNFα recombinant protein (R&D system, Cat #210-TA-100) in coating buffer. After removing the coating solution, blocking buffer was added into the plates followed by incubation at room temperature for 1 hour in order to block unspecific binding. During the blocking period, hybridoma antibodies samples were mixed with 0.5 μg/mL TNFR2-huFc at a 1:1 volume ratio and incubated at room temperature for another 1.5 hours. Then 50 μL/well of antigen-antibody mix solution was transferred into TNFα coated wells and incubated at room temperature for 1.5 hours. Plates were then washed 5 times with wash buffer. Then, 50 μL/well of goats anti-human IgG Fc-AP (Southern Biotech, cat #2014-04) at 1:2000 dilution in assay buffer was added, incubated at room temperature for 1 hour, washed 4 times with wash buffer and developed for 30 minutes with 50 μL/well of pNPP substrate. Plates were analyzed with a Synergy HT (Bio-TEK) at 405 nm. Parental hybridomas with the desired human and cynoTNFR2 binding as well as the ability to block human TNFR2 and human TNFα binding were prioritized for subcloning and further characterization. Subcloning was carried out with limited dilution and visual inspection was performed to ensure clonality. Hybridoma subclones were screened with the same binding and blocking assays and selected positive hits were cryopreserved.
TNFR2 blocking by purified recombinant chimeric antibodies: Human TNFR2 blocking ELISA was performed on purified recombinant chimeric antibodies following the same protocol as described above, except that 50 μL/well of serial dilution of purified antibodies (starting at 10 μg/mL, 1:3 dilution) in assay buffer was added into the reaction. The blocking IC₅₀ value represents the antibody concentration that inhibited 50% of huTNFR2 or cynoTNFR2 binding to coated human TNFα or cynomolgus monkey TNFα.

[3] = target: T3, cynomolgus monkey TNFR2 extracellular domain with C-terminal 10×His tag (cynomolgus monkey, UniProt P20333 23-257 (human entry)); test: ELISA, plate coated with His-tagged TNFR2 ECD, serial dilution of chimeric IgG; ELISA; cynoTNFR2-His coated on plate at 1 µg/mL, bivalent IgG in solution
T3 construct: also called cynoTNFR2-His; His-tag-cynoTNFR2
T3 chain: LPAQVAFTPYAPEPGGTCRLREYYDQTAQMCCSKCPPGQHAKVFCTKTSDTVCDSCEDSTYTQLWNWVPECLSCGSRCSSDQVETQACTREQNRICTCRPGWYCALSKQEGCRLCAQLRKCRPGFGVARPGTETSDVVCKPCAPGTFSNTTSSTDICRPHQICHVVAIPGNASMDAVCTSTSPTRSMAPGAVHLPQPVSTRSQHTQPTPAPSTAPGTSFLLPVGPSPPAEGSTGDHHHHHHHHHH
Experimental: (§2) TNFR2 binding of purified recombinant chimeric antibodies: The huTNFR2, cynoTNFR2 antigen binding ELISA was performed on the purified recombinant chimeric antibodies. Briefly, 384-well, clear, flat bottom, high binding plates (VWR, cat #29444-096) were coated overnight at 4° C. with 1 μg/mL of huTNFR2 or cynomolgus monkey TNFR2-His in PBS. After removing the coating solution, the plates were blocked by adding blocking buffer and incubated at room temperature for 1 hour. Plates were then washed 3 times with wash buffer. Serial dilution of purified antibodies in PBS was added to individual well followed by incubation at room temperature for 1 hour. Plates were washed 3 times with wash buffer. Then 50 μL/well of goat anti hu Kappa —AP (Southern Biotech, cat #2061-04) at 1:3000 dilution or goat anti human IgG Fc-AP at 1:3000 dilution in ELISA diluent was added, incubated at room temperature for 1 hour, washed 5 times with wash buffer and developed for 30 minutes with 50 μL/well of pNPP substrate. Plates were analyzed with a Bio-TEK at 405 nm. The chimeric TNFR2 antibodies were tested positive for binding to huTNFR2 and cynoTNFR2. The TNFR2 binding EC50 values are shown in Table 6, FIG. 1A (for huTNFR2) and FIG. 1B (for cynoTNFR2).

[4] = target: T1, human TNFR2 extracellular domain with …; test: ELISA, plate coated with His-tagged TNFR2 ECD, serial dilution of chimeric IgG
Experimental: as §2

[5] = target: T4, human TNFR2 expressed on cells (Expi293 cells stably expressing huTNFR2) (human, UniProt P20333 23-461); test: flow cytometry on Expi293 cells stably expressing huTNFR2
T4 construct: whole, on cells; Also used here as the target of the Treg assay (native TNFR2 on human primary Treg cells); also called huTNFR2 expressed cells; Expi293-TNFR2 cells
T4 sequence (looked up): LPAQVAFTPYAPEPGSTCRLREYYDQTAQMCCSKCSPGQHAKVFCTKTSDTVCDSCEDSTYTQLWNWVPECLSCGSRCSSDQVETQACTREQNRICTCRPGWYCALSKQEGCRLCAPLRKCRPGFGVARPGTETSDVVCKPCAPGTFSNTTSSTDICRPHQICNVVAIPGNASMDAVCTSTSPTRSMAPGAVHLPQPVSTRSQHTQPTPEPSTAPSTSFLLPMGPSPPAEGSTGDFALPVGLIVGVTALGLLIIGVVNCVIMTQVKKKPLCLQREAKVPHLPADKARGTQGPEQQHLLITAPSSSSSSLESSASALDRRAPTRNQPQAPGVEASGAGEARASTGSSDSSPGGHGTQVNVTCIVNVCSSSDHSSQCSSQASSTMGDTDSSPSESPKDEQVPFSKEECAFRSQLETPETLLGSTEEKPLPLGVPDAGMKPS
Experimental: (§3) The coding sequence of huTNFR2 (Uniprot, P20333) was cloned into a lentiviral vector and the virus was packaged according to the instruction of the virus packaging kit (Lenti-X™ Packaging Single Shots, Cat #631275, Takada). The Expi293 cells were transduced with the recombinant virus and selected by puromycin. The cell line stably expressing huTNFR2 was incubated with anti-TNFR2 antibodies in PBS with 0.5% BSA, 1 mM EDTA, and 0.1% sodium azide (FACS buffer) for 30 minutes at 4° C. The cells were washed, and then incubated with 10 nM phycoerythrin (PE) conjugated anti-Human Fe Ab (Biolegend, cat #409304) for 20 minutes at 4° C. Cells were washed and then […] by flow cytometry with Attune (ThermoFisher Scientific). Data were analyzed with FlowJo software. Antibody binding is represented as median fluorescence intensity (MFI).
As shown by the results in Table 9 and FIG. 4A, the anti-TNFR2 antibodies, 51B5, 102E4, 85G8.4, 29G3, 11C1, and 15H10 bind to Expi293-TNFR2 cells dose-dependently and potently.

[6] = target: T1, human TNFR2 extracellular domain with …; test: BLI (Octet RED96), AHC capture, His-tag-huTNFR2 in solution; antibody sample after 4 weeks at 40 °C
Experimental: as §1, with “antibody sample” for “antibody”, “see,” for “sec,”, “His-tag-huTNFR2” for “His-tag-huTNFR2 (2.5, 0.5 and 0 μg/mL) and His-tag-cynoTNFR2”
(§4) The binding kinetic data were presented in Table 18, showing that the binding with human-TNFR2 was not affected under the accelerated thermal stressed condition (4 weeks at […]

[7] = target: T1, human TNFR2 extracellular domain with …; test: BLI (Octet RED96), AHC capture, His-tag-huTNFR2 in solution; antibody sample after 2 weeks at 40 °C
Experimental: as §1, with “antibody sample” for “antibody”, “see,” for “sec,”, “His-tag-huTNFR2” for “His-tag-huTNFR2 (2.5, 0.5 and 0 μg/mL) and His-tag-cynoTNFR2”

[8] = target: T4, human TNFR2 expressed on cells (Expi293 …); test: flow cytometry on Expi293 cells stably expressing huTNFR2, y axis TNFR2 binding (MFI)
Experimental: as §3
FACS based binding and blocking assays of humanized antibodies were performed as described above.

[9] = target: T1, human TNFR2 extracellular domain with …; test: BLI (Octet RED96), AHC capture, His-tag-huTNFR2 in solution; antibody sample at week 0 of storage at 40 °C
Experimental: as §1, with “antibody sample” for “antibody”, “see,” for “sec,”, “His-tag-huTNFR2” for “His-tag-huTNFR2 (2.5, 0.5 and 0 μg/mL) and His-tag-cynoTNFR2”
as §4

[10] = target: T1, human TNFR2 extracellular domain with …; test: BLI (Octet RED96), antibody captured on AHC biosensor, His-tag-huTNFR2 in solution, 1:1 model
Experimental: as §1, with “μg/mL)” for “μg/mL) and His-tag-cynoTNFR2 (2.5, 0.5 and 0 μg/mL)”, “filtering. The dissociation constant (Kd) was calculated as the ratio of Koff/Kon.” for “filtering.”

Row | Binder | Kd [1] [nM] | koff [1] [s⁻¹] | kon [1] [M⁻¹ s⁻¹] | IC50 [2] [nM] | EC50 [3] [nM] | EC50 [4] [nM] | EC50 [5] [nM] | Kd [6] [nM] | koff [6] [s⁻¹] | kon [6] [M⁻¹ s⁻¹] | Kd [7] [nM] | koff [7] [s⁻¹] | kon [7] [M⁻¹ s⁻¹] | EC50 (read off the curve) [8] [nM] | Kd [9] [nM] | koff [9] [s⁻¹] | kon [9] [M⁻¹ s⁻¹] | Kd [10] [nM] | koff [10] [s⁻¹] | kon [10] [M⁻¹ s⁻¹]
1 | 102E4 chimeric anti-TNFR2 antibody (antibody, V domains shown, Chimeric: mouse variable domains with human constant regions, made as recombinant IgG1) VH: EVLLQQSGAELVRPGASVKLSCTASGFNIKDDFIHWVQQRPEQGLEWIGRINPSNANTEYAPKFQDKATITTDTSSNTAYLQLSSLTSEDTAVYYCTRNDGYYDGLFYWGQGTTLTVSS VL: DIVMTQSHKFMSSSVGDRVSITCKASQDVGTAVAWYQQKPGQSPKLLIYWASTRHTGVPDRFTGSGSGTDFTLTISNVQSEDLADYFCQQYSSYPFTFGSGTKLEIK | 1.59 | 0.000696 | 439000 | 1.13 | 0.338 | 0.04 | 0.819 | – | – | – | – | – | – | – | – | – | – | – | – | –
2 | SB1901-72 humanized anti-TNFR2 antibody (antibody, V domains shown) VH: QVQLVQSGAEVKKPGASVKVSCKASGYTFTDDYIDWVRQATGQGLEWIGEIYPGSGNTYYNEKFKGRVTMTRDKSISTAYMELSSLRSEDTAVYYCARSQVYGKIAMDHWGQGTLVTVSS VL: DIVMTQSPDSLAVSLGERATINCRASESVDNSGNSFMHWYQQKPGQPPKLLIYRASNLESGVPDRFSGSGSRTDFTLTISSLQAEDVAVYYCQQSKEDPYTFGQGTKVEIK | – | – | – | – | – | – | – | 1.06 | 0.000527 | 497000 | 1.35 | 0.000471 | 348000 | ~0.6 | 1.68 | 0.000495 | 295000 | 1.11 | 0.000456 | 412000
